# Reference: US20010046665A1, “Method of identifying the function of a test agent” (priority 2000, published 2001)
# Tests used:
# Assay type in all cases: cell-based
# Design in all cases: key: *: up in IL-1α treatment; **: up in OPG treatment, down in thrombopoietin treatment; ***: up in IFNγ treatment; ****: up in IL-6 treatment
# TF-1, Erythroleukemia = assay: GeneCalling confirmation of gene expression changes in TF-1 cells; conditions: confirmed by GeneCalling
# MG-63, Osteosarcoma = assay: GeneCalling confirmation of gene expression changes in MG-63 cells; conditions: confirmed by GeneCalling; for Collagen gene expression change: up with OPG, down with thrombopoietin
# U-87MG, Astrocytoma = assay: GeneCalling confirmation of gene expression changes in U-87MG cells; conditions: confirmed by GeneCalling
molecule,measurement,setting,value
IL-6: known protein used to treat the indicated cell lines in GeneCalling confirmation,ICAM-1 gene expression change,"TF-1, Erythroleukemia",ICAM-1****
thrombopoietin: known protein used to treat the indicated cell lines in GeneCalling confirmation,Collagen gene expression change,"MG-63, Osteosarcoma",Collagen**
"IL-1α: known protein used to treat the indicated cell lines in GeneCalling confirmation (protein, UniProt P01583 113-271, looked up) Interleukin-1 alpha: SAPFSFLSNVKYNFMRIIKYEFILNDALNQSIIRANDQYLTAAALHNLDEAVKFDMGAYKSSKDDAKITVILRISKTQLYVTAQDEDQPVLLKEMPEIPKTITGSETNLLFFWETHGTKNYFTSVAHPNLFIATKQDYWVCLAGGPPSITDFQILENQA",Factor B gene expression change,"MG-63, Osteosarcoma",Factor B*
same,IL-8 gene expression change,"MG-63, Osteosarcoma",IL-8*
same,IRF-1 gene expression change,"MG-63, Osteosarcoma",IRF-1*
same,LOX gene expression change,"MG-63, Osteosarcoma",LOX*
same,MxA gene expression change,"MG-63, Osteosarcoma",MxA*
same,TAP-1 gene expression change,"MG-63, Osteosarcoma",TAP-1*
same,IL-8 gene expression change,"U-87MG, Astrocytoma",IL-8*
same,MCP-1 gene expression change,"U-87MG, Astrocytoma",MCP-1*
same,Tenascin-c gene expression change,"U-87MG, Astrocytoma",Tenascin-c*
"OPG: known protein used to treat the indicated cell lines in GeneCalling confirmation (protein, UniProt O00300 22-401, looked up) Tumor necrosis factor …: ETFPPKYLHYDEETSHQLLCDKCPPGTYLKQHCTAKWKTVCAPCPDHYYTDSWHTSDECLYCSPVCKELQYVKQECNRTHNRVCECKEGRYLEIEFCLKHRSCPPGFGVVQAGTPERNTVCKRCPDGFFSNETSSKAPCRKHTNCSVFGLLLTQKGNATHDNICSGNSESTQKCGIDVTLCEEAFFRFAVPTKFTPNWLSVLVDNLPGTKVNAESVERIKRQHSSQEQTFQLLKLWKHQNKDQDIVKKIIQDIDLCENSVQRHIGHANLTFEQLRSLMESLPGKKVGAEDIEKTIKACKPSDQILKLLSLWRIKNGDQDTLKGLMHALKHSKTYHFPKTVTQSLKKTIRFLHSFTMYKLYQKLFLEMIGNQVQSVKISCL",Collagen gene expression change,"MG-63, Osteosarcoma",Collagen**
"IFNγ: known protein used to treat the indicated cell lines in GeneCalling confirmation (protein, UniProt P01579 24-161, looked up) Interferon gamma: QDPYVKEAENLKKYFNAGHSDVADNGTLFLGILKNWKEESDRKIMQSQIVSFYFKLFKNFKDDQSIQKSVETIKEDMNVKFFNSNKKKRDDFEKLTNYSVTDLNVQRKAIHELIQVMAELSPAAKTGKRKRSQMLFRG",IRF-1 gene expression change,"U-87MG, Astrocytoma",IRF-1***
same,IRF-1 gene expression change,"TF-1, Erythroleukemia",IRF-1***
